Measurements from publication PMC7498317, “GapR binds DNA through dynamic opening of its tetrameric interface” (Nucleic Acids Research, 2020).
Substitutions are numbered along the chain they refer to.

Legend:
GapR [1] = target: T1, GapR (Caulobacter crescentus, UniProt B8H4R9 1-89); experiment: ITC; ITC: 50 mM sodium phosphate pH 7.0, 200 mM NaCl, 4 C; 25 uM GapR tetramer in cell, 0.25 mM DNA injected; NMR: 0.1 mM tetramer, 0.02-0.1 mM DNA; settings: protein: recombinant, tags: C-terminal His6 (pET-21a), chain copies: 4, blunt
T1 sequence: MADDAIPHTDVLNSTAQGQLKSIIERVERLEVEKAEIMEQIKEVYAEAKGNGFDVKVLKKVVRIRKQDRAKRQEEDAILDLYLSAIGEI

[2] = target: the molecule itself; experiment: SEC; Superdex 75, 50 mM sodium phosphate pH 7.0, 150 mM NaCl; apparent molecular weight from the elution volume; self-association
[3] = target: the molecule itself; experiment: SEC-MALS; Superdex-75 HR 10/30, 50 mM sodium phosphate pH 7.0, 150 mM NaCl, 25°C; free GapR 0.5, 1.0 and 2.0 mg/mL, GapR^ΔC17 2.0 mg/ml; self-association
[4] = target: the molecule itself; experiment: cross-linking; 0.1 mM protein, EGS 0.5 and 1 mM, 50 mM sodium phosphate, 150 mM NaCl, pH 7.2, room temperature, 10 min; self-association
GapR G87A = target: T2, GapR G87A (Caulobacter crescentus, UniProt B8H4R9 1-89, G87A); experiment: NMR (1H-15N HSQC titration); minor peaks disappear on DNA addition; ITC: 50 mM sodium phosphate pH 7.0, 200 mM NaCl, 4 C; 25 uM GapR tetramer in cell, 0.25 mM DNA injected; NMR: 0.1 mM tetramer, 0.02-0.1 mM DNA; settings: protein: recombinant; tags: C-terminal His6 (pET-21a); chain copies: 4; blunt
T2 sequence: T1 sequence with G87A

GapR [5] = target: T1, GapR; experiment: ITC; netropsin-bound DNA; ITC: 50 mM sodium phosphate pH 7.0, 200 mM NaCl, 4 C; 25 uM GapR tetramer in cell, 0.25 mM DNA injected; NMR: 0.1 mM tetramer, 0.02-0.1 mM DNA; settings: protein: recombinant; tags: C-terminal His6 (pET-21a); chain copies: 4; blunt

B1: seq2 (dsDNA)
DNA 1: CGTGTTTTCGG
DNA 2: CCGAAAACACG
Binder B1 has a Kd (GapR [1]) of 72 ± 19 nM.

B2: seq1 (dsDNA)
DNA 1: GCGAAATTGATCG
DNA 2: CGATCAATTTCGC
B2 was tested, and the Kd (GapR [1]) was 72 ± 24 nM.

B3: GapR^ΔC8 (residues 1-81) (domain or fragment, C. crescentus, UniProt B8H4R9 1-81, looked up)
chain: MADDAIPHTDVLNSTAQGQLKSIIERVERLEVEKAEIMEQIKEVYAEAKGNGFDVKVLKKVVRIRKQDRAKRQEEDAILDL
notes: GapR of Caulobacter crescentus, gene CCNA_03428, residues 1-81; also called C-terminal truncation mutant; source: E. coli Rosetta (DE3), purified (Ni-NTA, size-exclusion chromatography)
For B3, the “stoichiometry N” value [2] was 2.

B4: GapR^ΔC17 (residues 1-72) (domain or fragment, C. crescentus, UniProt B8H4R9 1-72, looked up)
chain: MADDAIPHTDVLNSTAQGQLKSIIERVERLEVEKAEIMEQIKEVYAEAKGNGFDVKVLKKVVRIRKQDRAKR
notes: GapR of Caulobacter crescentus, gene CCNA_03428, residues 1-72; theoretical dimer mass 18.6 kDa as printed; also called C-terminal truncation mutant; source: E. coli Rosetta (DE3), purified (Ni-NTA, size-exclusion chromatography)
For B4, the “stoichiometry N” value [3] was 2.

B5: GapR^ΔN10 (residues 11-89) (domain or fragment, C. crescentus, UniProt B8H4R9 11-89, looked up)
chain: VLNSTAQGQLKSIIERVERLEVEKAEIMEQIKEVYAEAKGNGFDVKVLKKVVRIRKQDRAKRQEEDAILDLYLSAIGEI
notes: GapR of Caulobacter crescentus, gene CCNA_03428, residues 11-89; pET-28a(+) with a thrombin-cleavable N-terminal His6-tag; the tag was removed by thrombin; also called N-terminal truncation mutant; source: E. coli Rosetta (DE3), purified (Ni-NTA, thrombin cleavage, size-exclusion chromatography); not shown: His6, N-terminal, cleaved
B5: binds [2].

B6: GapR (growth-associated A/T-binding protein involved in regulation), full length, residues 1-89 (natural protein, C. crescentus, UniProt B8H4R9 1-89, looked up)
chain: T1 sequence
notes: GapR of Caulobacter crescentus, gene CCNA_03428, residues 1-89 (full length); theoretical monomer mass 11.2 kDa as printed; A selenomethionyl derivative was used for MAD phasing of the GapR/10A complex structure; 15N- or 13C-labelled for NMR; also called free GapR; full-length GapR; source: E. coli Rosetta (DE3), purified (Ni-NTA, size-exclusion chromatography on Superdex 75)
In the case of B6, the “stoichiometry N” value [4] is reported as 4.

B7: 11AT (dsDNA)
DNA 1: TTAAAATTAAA
DNA 2: TTTAATTTTAA
Work on B7 yielded a Kd (GapR [1]) of 12.3 ± 4.5 nM.

B8: 10A (dsDNA)
DNA 1: CCGAAAAAAAAAACGC
DNA 2: GCGTTTTTTTTTTCGG
B8 was tested, and the Kd (GapR [1]) was 11.6 ± 2.5 nM and the binding result (GapR G87A) was “binds”.

B9: 6CpG (dsDNA)
DNA 1: CGCGCGCGCGCG
DNA 2: CGCGCGCGCGCG
Work on B9 yielded a Kd (GapR [1]; self-complementary) of 118 ± 17 nM.

B10: 5ApT (dsDNA)
DNA 1: CCGATATATATATCGC
DNA 2: GCGATATATATATCGG
B10 gave a Kd (GapR [1]) of 12.3 ± 8.9 nM and a Kd (GapR [5]) of 16.6 ± 4.5 nM.
